Positions count from the first letter of the chain named.

Series [1] addresses T1, wt-Obe (tag-free obelin) (UniProt Q27709 1-195).
T1 sequence: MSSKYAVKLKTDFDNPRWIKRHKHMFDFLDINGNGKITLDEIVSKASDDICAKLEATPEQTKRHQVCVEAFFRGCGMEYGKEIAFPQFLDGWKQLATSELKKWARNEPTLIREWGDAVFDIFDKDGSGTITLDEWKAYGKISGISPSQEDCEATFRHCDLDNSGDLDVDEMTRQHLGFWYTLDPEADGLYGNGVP
The experiment in a line: DRaCALA.

Series [2] addresses T1, wt-Obe (tag-free obelin). The experiment in a line: solid-phase bioluminescent assay.

B1: O79t (structured_RNA)
RNA: GGGAGACAAGAAUAAACGCUCAAUGUGAAGUCGCAUUUAAUUGCUGGCGCCGUUUACUUGCUC
modifications: 2'-F on all C and U
B1: the equilibrium dissociation constant (Kd) (as a rule, the equilibrium constant for the complex coming apart) in series [1] came to 720 nM.

B2: O3t (structured_RNA)
RNA: B1 RNA with U36C, A40G, C50U
modifications: 2'-F on all C and U
In the case of B2, the dissociation constant Kd in series [1] worked out at 1370 nM.

B3: O6t (structured_RNA)
RNA: GGGAGACAAGAAUAAACGCUCAAGACGUGCGCGGGAAAGACCGACGCUCUACCCCUACAAGCU
modifications: 2'-F on all C and U
On to B3, for which the binding result in series [1] is recorded as “no binding”.

B4: O79 (structured_RNA)
RNA: GGGAGACAAGAAUAAACGCUCAAUGUGAAGUCGCAUUUAAUUGCUGGCGCCGUUUACUUGCUCUUCGACAGGAGGCUCACAACAGGC
modifications: 2'-F on all C and U
Consider B4, for which binding in series [1] was put at a Kd of 690 nM.

B5: O4t (structured_RNA)
RNA: GGGAGACAAGAAUAAACGCUCAACUAGGCUGUGCGCGGUGCCCUAUCUUAUCCGCGCCUCUCCU
modifications: 2'-F on all C and U
Take B5: the binding result in series [1] is given as “no binding”.

B6: O5 (structured_RNA)
RNA: GGGAGACAAGAAUAAACGCUCAAGUUGUACGCGGUUGGCAAUCCGCGUUGCUUUACGGGUUCCUUCGACAGGAGGCUCACAACAGGC
modifications: 2'-F on all C and U
For B6, the binding result in series [2] was “binds”.

B7: O35 (structured_RNA)
RNA: GGGAGACAAGAAUAAACGCUCAAUAGGGUACGCGGACAGCGAUGGGACCGCGUUGCCAGCCCCUUCGACAGGAGGCUCACAACAGGC
modifications: 2'-F on all C and U
For B7, in series [1], the binding result is recorded as “no binding”.

The record behind these values is publication PMC9056652.
